Target: SARS-CoV-2野生型(WT) S蛋白 (病毒颗粒上) (SARS-CoV-2, UniProt P0DTC2 14-1273)
Assay: cell-based or functional assay

B1: 抗体09C7 (antibody, V domains shown)
VH: QVTLRESGPTLVKPKQTLTLTCTFSGFSLSTPGGGVGWIRQPPGKALEWLALIYWDDDKRYSPSLKSSLTITKDTSKNQVVLTMTNMDPVDTATYYCARLTAADTIFDCWGQGTLVTV
VL: QSALTQPASVSGSPGLSITISCTATSSDVGAYNYVSWYQQHPGQAPKLMIYDVSKRPSGVSNRFSGSKSANTASLTISGLQAEDEADYYCSSYTTTSVVFGGGTKLTVL
- IC50, pseudovirus neutralisation (luciferase, Huh-7 cells): 4 ng/mL

— patent publication CN117736314A (ADVACCINE SUZHOU BIOPHARMACEUTICAL CO LTD; UNIV FUDAN, dated 2024)
